Laboratory results as given in publication PMC4288179, “Synergic interplay of the La motif, RRM1 and the interdomain linker of LARP6 in the recognition of collagen mRNA expands the RNA binding repertoire of the La module”.
Numbering of substitutions follows the chain as printed.

What was measured:
Assay in all cases: ITC; ITC: 20 mM Tris pH 7.25, 100 mM KCl, 5 mM MgCl2, 1 mM DTT, 298 K; protein titrated into RNA
Details in all cases: protein: recombinant; tags: N-terminal His6 (TEV-cleavable); stem-loop with internal bulge
HsLARP6(70-300) N180R = molecular target: T1, HsLARP6(70-300) N180R (Homo sapiens, UniProt Q9BRS8 70-300, N180R)
T1 sequence: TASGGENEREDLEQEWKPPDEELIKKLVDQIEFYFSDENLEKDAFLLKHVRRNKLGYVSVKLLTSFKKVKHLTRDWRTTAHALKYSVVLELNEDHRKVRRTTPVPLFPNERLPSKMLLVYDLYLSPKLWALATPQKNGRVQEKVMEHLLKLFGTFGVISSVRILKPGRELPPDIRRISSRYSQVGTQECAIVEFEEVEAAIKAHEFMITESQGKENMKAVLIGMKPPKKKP

HsLARP6(70-300) Y189A = molecular target: T2, HsLARP6(70-300) Y189A (Homo sapiens, UniProt Q9BRS8 70-300, Y189A)
T2 sequence: T1 sequence with R111N, Y120A

HsLARP6(70-300) R237A = molecular target: T3, HsLARP6(70-300) R237A (Homo sapiens, UniProt Q9BRS8 70-300, R237A)
T3 sequence: T1 sequence with R111N, R168A

Loop1 chimera = molecular target: T4, Loop1 chimera (Homo sapiens, UniProt Q9BRS8 70-189+P05455:116-122+209-300, internal_change)
T4 sequence: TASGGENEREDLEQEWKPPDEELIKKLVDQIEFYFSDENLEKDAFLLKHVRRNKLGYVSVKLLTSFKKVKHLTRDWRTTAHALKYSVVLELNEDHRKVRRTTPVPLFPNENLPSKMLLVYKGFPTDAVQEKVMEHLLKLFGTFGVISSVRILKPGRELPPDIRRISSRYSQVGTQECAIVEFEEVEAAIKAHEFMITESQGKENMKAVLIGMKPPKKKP

HsLARP6(70-300) K196A = molecular target: T5, HsLARP6(70-300) K196A (Homo sapiens, UniProt Q9BRS8 70-300, K196A)
T5 sequence: T1 sequence with R111N, K127A

HsLARP6(70-300) R245A = molecular target: T6, HsLARP6(70-300) R245A (Homo sapiens, UniProt Q9BRS8 70-300, R245A)
T6 sequence: T1 sequence with R111N, R176A

HsLARP6 RRM1 (180-295) = molecular target: T7, HsLARP6 RRM1 (180-295) (Homo sapiens, UniProt Q9BRS8 180-295)
T7 sequence: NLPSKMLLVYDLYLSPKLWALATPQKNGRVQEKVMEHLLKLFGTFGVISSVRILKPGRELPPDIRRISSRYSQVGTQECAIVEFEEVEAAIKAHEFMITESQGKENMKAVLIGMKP

HsLARP6(70-300) W198A = molecular target: T8, HsLARP6(70-300) W198A (Homo sapiens, UniProt Q9BRS8 70-300, W198A)
T8 sequence: T1 sequence with R111N, W129A

HsLARP6 LaM (70-183) = molecular target: T9, HsLARP6 LaM (70-183) (Homo sapiens, UniProt Q9BRS8 70-183)
T9 sequence: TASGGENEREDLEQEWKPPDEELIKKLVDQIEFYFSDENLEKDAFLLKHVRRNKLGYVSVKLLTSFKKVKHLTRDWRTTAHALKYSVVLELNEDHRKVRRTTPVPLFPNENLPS

**Q.** How did the Kd (HsLARP6(70-300) N180R) turn out when CCACAAAGAGUCUACAUGUCUAGGGUCUAGACAUGUUCAGCUUUGUGG (structured_RNA) [48 nt RNA (collagen alpha1(I) 5' UTR SL)] was run?
**A.** 32 nM

**Q.** What about the Kd (HsLARP6(70-300) Y189A) of the same binder?
**A.** 59 nM

**Q.** And the Kd (HsLARP6(70-300) R237A)?
**A.** 15 nM

**Q.** And the Kd (Loop1 chimera)?
**A.** 18 nM

**Q.** What about the Kd (HsLARP6(70-300) K196A) of the same binder?
**A.** 48 nM

**Q.** And the Kd (HsLARP6(70-300) R245A)?
**A.** 36 nM

**Q.** Does CCACAAAGAGUCUACAUGUCUAGGGUCUAGACAUGUUCAGCUUUGUGG (structured_RNA) [48 nt RNA (collagen alpha1(I) 5' UTR SL)] bind (HsLARP6 RRM1 (180-295))?
**A.** no binding

**Q.** What about the Kd (HsLARP6(70-300) W198A) of the same binder?
**A.** 71 nM

**Q.** Does CCACAAAGAGUCUACAUGUCUAGGGUCUAGACAUGUUCAGCUUUGUGG (structured_RNA) [48 nt RNA (collagen alpha1(I) 5' UTR SL)] bind (HsLARP6 LaM (70-183))?
**A.** no binding
